Data as given in patent US20220048967A1 (published 2022).
Numbered stars: 1 amine (or outer) side, 2 acyl side, 3 side chain; on linkers, the order of the positions; unused ones are H or OH. Square brackets hold non-standard residues; d marks the D form. Side chains are listed from the residue outwards. Ends that are not written are not given here. * marks the point of attachment. C20 diacid = O=C(O)CCCCCCCCCCCCCCCCCCC(=O)*; γGlu = O=C(O)[C@H](CCC(=O)[*:2])N[*:1]; AEEA = NCCOCCOCC(=O)O; Aib = CC(C)(N)C(=O)O

T1: human GIP receptor (human, UniProt P48546 22-466)
T1 sequence (looked up): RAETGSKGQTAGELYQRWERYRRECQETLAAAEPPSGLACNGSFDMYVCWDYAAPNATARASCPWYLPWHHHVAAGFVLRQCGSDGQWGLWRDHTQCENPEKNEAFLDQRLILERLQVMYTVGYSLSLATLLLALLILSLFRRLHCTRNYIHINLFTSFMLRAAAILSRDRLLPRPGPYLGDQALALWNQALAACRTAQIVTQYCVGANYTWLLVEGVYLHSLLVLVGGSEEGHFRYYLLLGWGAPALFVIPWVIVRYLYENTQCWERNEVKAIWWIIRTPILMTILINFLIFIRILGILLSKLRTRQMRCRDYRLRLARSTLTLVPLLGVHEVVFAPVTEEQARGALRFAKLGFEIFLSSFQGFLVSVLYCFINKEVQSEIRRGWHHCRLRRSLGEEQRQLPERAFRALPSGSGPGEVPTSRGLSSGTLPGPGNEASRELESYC


Experiments:
[1] = molecular target: T1, human GIP receptor; test: cell-based or functional assay
[2] = molecular target: human GLP-1 receptor (human, UniProt P43220 24-463); test: cell-based or functional assay

| Binder | hGIPR cAMP EC50 ratio [1] | hGIPR cAMP Rel EC50 [1] [nM] | hGLP1R cAMP EC50 ratio [2] | hGLP1R cAMP Rel EC50 [2] [nM] |
| --- | --- | --- | --- | --- |
| Y[Aib]EGTFTSDYSILLDKIAQ[Aib]K([AEEA-AEEA-γGlu-C20 diacid])FIEYLIEGGPSSGAPPPS-NH2 (N-terminus assumed; SMILES CC[C@H](C)[C@H](NC(=O)[C@H](CCCCN)NC(=O)[C@H](CC(=O)O)NC(=O)[C@H](CC(C)C)NC(=O)[C@H](CC(C)C)NC(=O)[C@@H](NC(=O)[C@H](CO)NC(=O)[C@H](Cc1ccc(O)cc1)NC(=O)[C@H](CC(=O)O)NC(=O)[C@H](CO)NC(=O)[C@@H](NC(=O)[C@H](Cc1ccccc1)NC(=O)[C@@H](NC(=O)CNC(=O)[C@H](CCC(=O)O)NC(=O)C(C)(C)NC(=O)[C@@H](N)Cc1ccc(O)cc1)[C@@H](C)O)[C@@H](C)O)[C@@H](C)CC)C(=O)N[C@@H](C)C(=O)N[C@@H](CCC(N)=O)C(=O)NC(C)(C)C(=O)N[C@@H](CCCCNC(=O)COCCOCCNC(=O)COCCOCCNC(=O)CC[C@H](NC(=O)CCCCCCCCCCCCCCCCCCC(=O)O)C(=O)O)C(=O)N[C@@H](Cc1ccccc1)C(=O)N[C@H](C(=O)N[C@@H](CCC(=O)O)C(=O)N[C@@H](Cc1ccc(O)cc1)C(=O)N[C@@H](CC(C)C)C(=O)N[C@H](C(=O)N[C@@H](CCC(=O)O)C(=O)NCC(=O)NCC(=O)N1CCC[C@H]1C(=O)N[C@@H](CO)C(=O)N[C@@H](CO)C(=O)NCC(=O)N[C@@H](C)C(=O)N1CCC[C@H]1C(=O)N1CCC[C@H]1C(=O)N1CCC[C@H]1C(=O)N[C@@H](CO)C(N)=O)[C@@H](C)CC)[C@@H](C)CC) [Example 32] | 0.84 | 0.179 | 0.136 | 0.498 |
| Y[Aib]EGTFTSDYSILLDKIAQ[Aib]AFK([AEEA-AEEA-γGlu-C20 diacid])EYLIEGGPSSGAPPPS-NH2 [Example 33] | 0.00222 | 63.3 | 0.000256 | 251 |
| Y[Aib]EGTFTSDYSILLDKIAQ[Aib]AFIKYLIEGGPSSGAPPPS-NH2 (not fully specified (residue 24)) [Example 34] | 0.393 | 0.36 | 0.0392 | 1.56 |
| Y[Aib]EGTFTSDYSILLDKIAQ[Aib]AFIEYLK([AEEA-AEEA-γGlu-C20 diacid])EGGPSSGAPPPS-NH2 (N-terminus assumed; SMILES CC[C@H](C)[C@H](NC(=O)[C@H](CCCCN)NC(=O)[C@H](CC(=O)O)NC(=O)[C@H](CC(C)C)NC(=O)[C@H](CC(C)C)NC(=O)[C@@H](NC(=O)[C@H](CO)NC(=O)[C@H](Cc1ccc(O)cc1)NC(=O)[C@H](CC(=O)O)NC(=O)[C@H](CO)NC(=O)[C@@H](NC(=O)[C@H](Cc1ccccc1)NC(=O)[C@@H](NC(=O)CNC(=O)[C@H](CCC(=O)O)NC(=O)C(C)(C)NC(=O)[C@@H](N)Cc1ccc(O)cc1)[C@@H](C)O)[C@@H](C)O)[C@@H](C)CC)C(=O)N[C@@H](C)C(=O)N[C@@H](CCC(N)=O)C(=O)NC(C)(C)C(=O)N[C@@H](C)C(=O)N[C@@H](Cc1ccccc1)C(=O)N[C@H](C(=O)N[C@@H](CCC(=O)O)C(=O)N[C@@H](Cc1ccc(O)cc1)C(=O)N[C@@H](CC(C)C)C(=O)N[C@@H](CCCCNC(=O)COCCOCCNC(=O)COCCOCCNC(=O)CC[C@H](NC(=O)CCCCCCCCCCCCCCCCCCC(=O)O)C(=O)O)C(=O)N[C@@H](CCC(=O)O)C(=O)NCC(=O)NCC(=O)N1CCC[C@H]1C(=O)N[C@@H](CO)C(=O)N[C@@H](CO)C(=O)NCC(=O)N[C@@H](C)C(=O)N1CCC[C@H]1C(=O)N1CCC[C@H]1C(=O)N1CCC[C@H]1C(=O)N[C@@H](CO)C(N)=O)[C@@H](C)CC) [Example 36] | 0.458 | 0.309 | 0.0268 | 2.29 |
| Y[Aib]EGTFTSDYSILLDKIAK([AEEA-AEEA-γGlu-C20 diacid])[Aib]AFIEYLIEGGPSSGAPPPS-NH2 (N-terminus assumed; SMILES CC[C@H](C)[C@H](NC(=O)[C@H](CCCCN)NC(=O)[C@H](CC(=O)O)NC(=O)[C@H](CC(C)C)NC(=O)[C@H](CC(C)C)NC(=O)[C@@H](NC(=O)[C@H](CO)NC(=O)[C@H](Cc1ccc(O)cc1)NC(=O)[C@H](CC(=O)O)NC(=O)[C@H](CO)NC(=O)[C@@H](NC(=O)[C@H](Cc1ccccc1)NC(=O)[C@@H](NC(=O)CNC(=O)[C@H](CCC(=O)O)NC(=O)C(C)(C)NC(=O)[C@@H](N)Cc1ccc(O)cc1)[C@@H](C)O)[C@@H](C)O)[C@@H](C)CC)C(=O)N[C@@H](C)C(=O)N[C@@H](CCCCNC(=O)COCCOCCNC(=O)COCCOCCNC(=O)CC[C@H](NC(=O)CCCCCCCCCCCCCCCCCCC(=O)O)C(=O)O)C(=O)NC(C)(C)C(=O)N[C@@H](C)C(=O)N[C@@H](Cc1ccccc1)C(=O)N[C@H](C(=O)N[C@@H](CCC(=O)O)C(=O)N[C@@H](Cc1ccc(O)cc1)C(=O)N[C@@H](CC(C)C)C(=O)N[C@H](C(=O)N[C@@H](CCC(=O)O)C(=O)NCC(=O)NCC(=O)N1CCC[C@H]1C(=O)N[C@@H](CO)C(=O)N[C@@H](CO)C(=O)NCC(=O)N[C@@H](C)C(=O)N1CCC[C@H]1C(=O)N1CCC[C@H]1C(=O)N1CCC[C@H]1C(=O)N[C@@H](CO)C(N)=O)[C@@H](C)CC)[C@@H](C)CC) [Example 31] | 0.456 | 0.388 | 0.0708 | 0.891 |
| Y[Aib]EGTFTSDYSILLDKIAQ[Aib]AFIEYK([AEEA-AEEA-γGlu-C20 diacid])IEGGPSSGAPPPS-NH2 (N-terminus assumed; SMILES CC[C@H](C)[C@H](NC(=O)[C@H](CCCCN)NC(=O)[C@H](CC(=O)O)NC(=O)[C@H](CC(C)C)NC(=O)[C@H](CC(C)C)NC(=O)[C@@H](NC(=O)[C@H](CO)NC(=O)[C@H](Cc1ccc(O)cc1)NC(=O)[C@H](CC(=O)O)NC(=O)[C@H](CO)NC(=O)[C@@H](NC(=O)[C@H](Cc1ccccc1)NC(=O)[C@@H](NC(=O)CNC(=O)[C@H](CCC(=O)O)NC(=O)C(C)(C)NC(=O)[C@@H](N)Cc1ccc(O)cc1)[C@@H](C)O)[C@@H](C)O)[C@@H](C)CC)C(=O)N[C@@H](C)C(=O)N[C@@H](CCC(N)=O)C(=O)NC(C)(C)C(=O)N[C@@H](C)C(=O)N[C@@H](Cc1ccccc1)C(=O)N[C@H](C(=O)N[C@@H](CCC(=O)O)C(=O)N[C@@H](Cc1ccc(O)cc1)C(=O)N[C@@H](CCCCNC(=O)COCCOCCNC(=O)COCCOCCNC(=O)CC[C@H](NC(=O)CCCCCCCCCCCCCCCCCCC(=O)O)C(=O)O)C(=O)N[C@H](C(=O)N[C@@H](CCC(=O)O)C(=O)NCC(=O)NCC(=O)N1CCC[C@H]1C(=O)N[C@@H](CO)C(=O)N[C@@H](CO)C(=O)NCC(=O)N[C@@H](C)C(=O)N1CCC[C@H]1C(=O)N1CCC[C@H]1C(=O)N1CCC[C@H]1C(=O)N[C@@H](CO)C(N)=O)[C@@H](C)CC)[C@@H](C)CC) [Example 35] | 1.58 | 0.0905 | 0.00728 | 8.38 |
